# Non-standard residues stand in square brackets, D forms with d. No end group written: not given here. *: point of attachment. Biotin = O=C1N[C@H]2[C@H](CS[C@H]2CCCCC(=O)*)N1; sY = N[C@@H](Cc1ccc(OS(=O)(=O)O)cc1)C(=O)O
# B1: 09B09 (antibody, IgG4, V domains shown)
# VH: EVKLLESGGGLVQPGGSLRLSCAASGITFSTYAMMWVRQAPGKGLEWVSGISGSGASRYYADSVKGRFTISRDNSKNMLYLQMNSLRAEDTAVYYCAKKVLGRRKQYFDDWGQGTLVTVSS
# VL: DIVMTQSPLSLPVTPGEPASISCRSSQSLLHSNGYNYLDWYLQRPGQSPQLLIYLGSHRASGVPDRFSGSGSGTEHTLKITTVAAEDVGVYYCMQALQSPPTFGQGTRLDIK
# B2: 09D11 (antibody, IgG4, V domains shown)
# VH: QVQLVESGGGFIQPGGSLRLSCAASGLTFSNYAMTWVRQAPGKGLEWVSTISGGGGNTYYTDSVKGRFTISRDNSKNTLYLQMNSLKAEDTAVYRCAKGLAAALFDYWGQGTLVTVSS
# VL: DIVLTQSPDSLPVTPGEPASISCRSSRSLLHSNGHNFLAWYLQKPGQSPHLLIYLGSNRASGVPDRFSGSGSGTDFTLKISRVEAEDVGIYYCMQALQTPITFGQGTRLDIK
# B3: 01E01 (antibody, V domains shown)
# VH: EVQLVQSGGGVVQPGRSLRLSCAASGFTFSSYGMHWVRQAPGKGLEWVAVISYDGSNKYYADSVKGRFTISRDNSKNTLYLQMHSLRAEDTAVYYCANLVGTTNSWGQGTLVTVSS
# VL: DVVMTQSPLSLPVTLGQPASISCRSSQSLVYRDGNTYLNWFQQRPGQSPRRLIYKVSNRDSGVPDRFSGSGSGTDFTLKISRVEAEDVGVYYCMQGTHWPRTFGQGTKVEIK
# B4: 03E05 (antibody, IgG4, V domains shown)
# VH: EVKLLESGGDLAQTGGSLRLSCVASGFTFSSYPMSWVRQAPGKGLEWVSAIRRSGATQYADSVKGRFTISRDNSKNTVYLQMNSLRVEDTAVYYCAKGTYDLGQGTLVTVSS
# VL: DIVMTQTPLSLPVTLGQPASISCRSSQSLVYSDGNTYLNWFHQRPGQSPRRLIYKVSNRDSGVPDRFSGSGSDTEFTLKISRVEAEDVGVYYCMQATHWPLTFGGGTKVEIK
# B5: 01A11 (antibody, IgG4, V domains shown)
# VH: EVKLLESGGGLVQPGGSLRLSCATSGFSFSDYWMSWVRQAPGKGLEWVASIKKDGSEKYYVDSVKGRFTISRDNAKNSLYVQMNSLRAEDTAIYYCVVFGAWGPGTLVTVSS
# VL: DIVMTQTPLSLPVTLGQPASISCRSGRSLVYSDGNTYLNWFQQRPGQSPRRLIYKVSNRDSGVPDRFSGGGSGTDFTLKISRVEAEDVAIYYCMQGTHWPPTFGQGTKLEIK
# Legend:
# SulfoTyr C4 peptide = target: T1, SulfoTyr C4 peptide (not fully specified; Y4, Y7 and Y9 sulfated (SO3); C-terminal biotin); test: ELISA, 50 nM mAb
# T1 construct: also called C4 alpha chain peptide; human sulfotyrosinylated C4 peptide
# T1 peptide: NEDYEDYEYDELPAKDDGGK
# Experimental: (§1) Recombinant PSGL-1-hFc1 chimera protein consisting of PSGL-1's extracellular domain (ECD) served as a positive control. […] Primary antibody was added (25 ul per well) in duplicate at 50 nM in assay buffer (blocking buffer containing 0.05% Tween®20) into test and control (just blocked) wells and the plate incubated for 45 min at 37° C.
# [1] = target: T2, Sulfotyr fibrinogen γ peptide (not fully specified; Y8 and Y12 sulfated (SO3); C-terminal biotin); test: ELISA, 50 nM mAb
# T2 construct: also called Fibrinogen gamma peptide; human sulfotyrosinylated fibrinogen peptide
# T2 peptide: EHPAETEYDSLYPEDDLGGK
# Experimental: as §1
# [2] = target: T3, Recombinant human PSGL-1(ECD)-hFc1 (R&D Systems, Cat. 3345-PS) (human, UniProt Q14242 42-305); test: ELISA, 50 nM mAb
# T3 construct: Bought; Gln42-Val295 counted on AAC50061; also called PSGL-1-Fc; PSGL-1-hFc1 chimera; not shown: human IgG1 Fc, Pro100-Lys330
# T3 sequence: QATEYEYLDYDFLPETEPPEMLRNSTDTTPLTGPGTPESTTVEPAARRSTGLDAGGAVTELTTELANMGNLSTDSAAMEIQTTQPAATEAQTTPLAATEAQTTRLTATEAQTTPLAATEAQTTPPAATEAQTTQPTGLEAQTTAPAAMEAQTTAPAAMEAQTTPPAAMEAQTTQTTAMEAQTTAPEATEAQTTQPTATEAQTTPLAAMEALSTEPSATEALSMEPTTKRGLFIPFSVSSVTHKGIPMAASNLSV
# Experimental: as §1
# [3] = target: T4, Human complement C4 protein (Millipore Sigma, Cat. 204886) (human, UniProt P0C0L4 20-675; P0C0L4 680-1446; P0C0L4 1454-1744, limits assumed, natural sulfotyrosines); test: ELISA, 50 nM mAb
# T4 construct: mature
# Experimental: as §1
# [4] = target: T5, Human fibrinogen protein (ThermoFisher, RP-43142) (human, UniProt P02671 20-629; P02675 31-491; P02679 27-453, limits assumed, natural sulfotyrosines); test: ELISA, 50 nM mAb
# T5 construct: mature; Native dimer with 3 pairs of non-identical chains; also called gamma-fibrinogen; γ fibrinogen protein
# T5 sequence (looked up) 1: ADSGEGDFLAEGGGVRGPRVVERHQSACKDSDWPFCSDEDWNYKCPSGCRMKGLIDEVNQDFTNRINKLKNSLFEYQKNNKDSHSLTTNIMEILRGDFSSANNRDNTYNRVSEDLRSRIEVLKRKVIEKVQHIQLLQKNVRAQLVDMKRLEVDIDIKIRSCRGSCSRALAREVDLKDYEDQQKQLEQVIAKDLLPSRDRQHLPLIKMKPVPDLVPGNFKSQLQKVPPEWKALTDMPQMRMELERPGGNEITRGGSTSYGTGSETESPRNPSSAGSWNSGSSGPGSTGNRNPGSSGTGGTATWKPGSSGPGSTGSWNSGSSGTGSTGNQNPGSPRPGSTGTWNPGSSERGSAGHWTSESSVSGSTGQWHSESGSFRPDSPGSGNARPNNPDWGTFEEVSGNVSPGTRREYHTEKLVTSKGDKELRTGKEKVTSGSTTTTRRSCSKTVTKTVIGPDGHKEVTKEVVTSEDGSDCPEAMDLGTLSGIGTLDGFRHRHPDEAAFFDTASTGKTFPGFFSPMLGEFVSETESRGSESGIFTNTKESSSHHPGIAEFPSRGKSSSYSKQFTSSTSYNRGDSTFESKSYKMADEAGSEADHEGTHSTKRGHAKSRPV
# T5 sequence (looked up) 2: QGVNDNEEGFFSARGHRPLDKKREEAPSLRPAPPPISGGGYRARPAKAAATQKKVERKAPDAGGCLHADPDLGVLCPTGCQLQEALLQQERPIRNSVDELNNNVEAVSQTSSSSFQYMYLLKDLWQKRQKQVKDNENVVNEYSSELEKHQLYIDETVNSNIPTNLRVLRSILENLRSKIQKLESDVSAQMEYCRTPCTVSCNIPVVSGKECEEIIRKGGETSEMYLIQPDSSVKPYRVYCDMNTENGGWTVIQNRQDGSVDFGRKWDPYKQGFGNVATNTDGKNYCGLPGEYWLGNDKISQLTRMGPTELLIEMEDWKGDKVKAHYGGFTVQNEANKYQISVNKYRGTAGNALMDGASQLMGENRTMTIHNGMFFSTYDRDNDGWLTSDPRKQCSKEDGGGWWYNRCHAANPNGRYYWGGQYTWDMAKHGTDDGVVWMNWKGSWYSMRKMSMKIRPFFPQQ
# T5 sequence (looked up) 3: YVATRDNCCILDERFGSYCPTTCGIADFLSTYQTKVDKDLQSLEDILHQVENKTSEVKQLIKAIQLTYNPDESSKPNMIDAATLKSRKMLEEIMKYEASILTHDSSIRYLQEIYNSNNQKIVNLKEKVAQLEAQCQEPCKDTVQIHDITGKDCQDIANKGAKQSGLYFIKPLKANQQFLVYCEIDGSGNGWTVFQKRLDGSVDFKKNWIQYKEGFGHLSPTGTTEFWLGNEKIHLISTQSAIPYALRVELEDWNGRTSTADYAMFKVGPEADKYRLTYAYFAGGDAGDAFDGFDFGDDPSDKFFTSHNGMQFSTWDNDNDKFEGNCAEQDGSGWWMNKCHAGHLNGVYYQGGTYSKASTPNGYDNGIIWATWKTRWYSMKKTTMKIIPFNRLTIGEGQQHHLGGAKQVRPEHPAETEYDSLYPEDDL
# Experimental: as §1
# SulfoCCK biotin peptide = target: T6, SulfoCCK biotin peptide (human); test: ELISA, 50 nM mAb
# T6 construct: also called sulfotyrosine CCK peptide
# T6 peptide: SHRISDRD[sY]MGWMDFGGK(Biotin)
# Experimental: as §1
# [5] = target: T7, Sulfotyrosine CCR2b biotin peptide (human); test: ELISA, 50 nM mAb
# T7 construct: also called CCR2b peptide
# T7 peptide: TTFFD[sY]D[sY]GAPSHGGK(Biotin)
# Experimental: as §1
# [6] = target: T8, Sulfotyrosine D6 biotin peptide (human); test: ELISA, 50 nM mAb
# T8 construct: also called D6 peptide
# T8 peptide: ENSSFY[sY][sY]D[sY]LDEVAFGGK(Biotin)
# Experimental: as §1
# [7] = target: T9, Biotin PSGL-1(42-62) peptide, unmodified (human, C-terminal Lys-biotin); test: ELISA, immobilized biotin peptide
# T9 construct: Residues 42-62 followed by GGGK-biotin; also called WT; wild-type
# T9 peptide: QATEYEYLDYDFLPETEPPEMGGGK
# Experimental: (§2) A typical ELISA was performed by coating high binding half-well plates (Corning Cat. #3690) with 3 ug/mL/25 ul per well of biotinylated N-terminal PSGL-1 peptides, which incorporated residues 42 to 62 of the protein, in PBS, pH 7.4, overnight at 4° C. The peptide was unmodified or contained sulfated tyrosine at all 3 tyrosine positions (46, 48, and 51) or at one position (tyr51) (Table 7).
# (§3) PSGL-1 protein or peptide served as a positive control. […] […] […] For each antibody, duplicate values were averaged and average assay background was subtracted.
# [8] = target: T10, Biotin Y46,48,51(SO3) PSGL-1(42-62) peptide (human, sulfotyrosine at Y46, Y48 and Y51; C-terminal Lys-biotin); test: ELISA, immobilized biotin peptide
# T10 construct: also called fully sulfated N-terminal PSGL-1 peptide
# T10 peptide: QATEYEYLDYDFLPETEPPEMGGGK
# Experimental: as §2, §3
# [9] = target: T11, Cynomolgus PSGL-1(ECD)-hFc1 (cynomolgus macaque); test: ELISA, 20 nM mAb on plate cyno PSGL-1(ECD)-Fc
# T11 construct: also called Cyno PSGL1-Fc; Cyno PSGL-1(ECD)-Fc
# Experimental: Antibody binding to plate-immobilized cyno PSGL-1(ECD) was determined either at one concentration (20 nM) or by generating full antibody binding curves (0.003-200 nM). A typical ELISA was performed by overnight coating at 4° C. with 3 ug/mL/25 ul per well of recombinant cyno PSGL-1(ECD) protein in PBS, pH 7.4, in high binding half-well plates (Corning Cat. #3690). […] Anti-PSGL-1 IgG in assay buffer (blocking buffer containing 0.05% tween 20) was added into test and control wells (20 nM/25 ul/well) and the plate incubated for 45 min at 37° C. […] The plate was incubated for 45 min at 37° C., and mAb bound to plate-immobilized target determined at A450 nm using HRP substrate (3,3′,5,5′-tetramethylbenzidine (TMB)). For each antibody, duplicate values were averaged and assay background subtracted.
# [10] = target: T12, Scrambled Y42,52,63(SO3) PSGL-1(42-62) biotin peptide (sulfotyrosine at peptide positions 1, 11 and 22; C-terminal Lys-biotin); test: ELISA, immobilized biotin peptide
# T12 peptide: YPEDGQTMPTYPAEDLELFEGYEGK
# Experimental: as §2, §3
# T4 sequence (P0C0L4 20-675 limits assumed, form in doubt, chain 1 of 3): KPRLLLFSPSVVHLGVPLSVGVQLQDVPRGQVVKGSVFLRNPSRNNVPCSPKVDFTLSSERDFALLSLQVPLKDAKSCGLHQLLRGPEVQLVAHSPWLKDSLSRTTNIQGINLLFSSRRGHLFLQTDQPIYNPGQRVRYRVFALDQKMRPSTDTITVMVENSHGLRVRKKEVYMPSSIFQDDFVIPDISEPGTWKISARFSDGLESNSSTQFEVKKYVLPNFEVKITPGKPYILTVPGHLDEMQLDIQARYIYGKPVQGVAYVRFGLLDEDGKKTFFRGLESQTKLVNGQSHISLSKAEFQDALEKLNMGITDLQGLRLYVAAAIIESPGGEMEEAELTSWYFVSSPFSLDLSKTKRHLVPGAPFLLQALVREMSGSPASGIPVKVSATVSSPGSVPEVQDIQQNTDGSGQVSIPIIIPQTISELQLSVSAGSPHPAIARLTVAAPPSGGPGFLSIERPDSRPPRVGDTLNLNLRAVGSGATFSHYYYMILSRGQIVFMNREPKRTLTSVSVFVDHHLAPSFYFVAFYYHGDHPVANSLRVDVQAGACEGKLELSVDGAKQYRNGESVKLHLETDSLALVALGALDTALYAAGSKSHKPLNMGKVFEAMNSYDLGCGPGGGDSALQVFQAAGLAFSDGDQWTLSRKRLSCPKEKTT
# T4 sequence (P0C0L4 680-1446 limits assumed, form in doubt, chain 2 of 3): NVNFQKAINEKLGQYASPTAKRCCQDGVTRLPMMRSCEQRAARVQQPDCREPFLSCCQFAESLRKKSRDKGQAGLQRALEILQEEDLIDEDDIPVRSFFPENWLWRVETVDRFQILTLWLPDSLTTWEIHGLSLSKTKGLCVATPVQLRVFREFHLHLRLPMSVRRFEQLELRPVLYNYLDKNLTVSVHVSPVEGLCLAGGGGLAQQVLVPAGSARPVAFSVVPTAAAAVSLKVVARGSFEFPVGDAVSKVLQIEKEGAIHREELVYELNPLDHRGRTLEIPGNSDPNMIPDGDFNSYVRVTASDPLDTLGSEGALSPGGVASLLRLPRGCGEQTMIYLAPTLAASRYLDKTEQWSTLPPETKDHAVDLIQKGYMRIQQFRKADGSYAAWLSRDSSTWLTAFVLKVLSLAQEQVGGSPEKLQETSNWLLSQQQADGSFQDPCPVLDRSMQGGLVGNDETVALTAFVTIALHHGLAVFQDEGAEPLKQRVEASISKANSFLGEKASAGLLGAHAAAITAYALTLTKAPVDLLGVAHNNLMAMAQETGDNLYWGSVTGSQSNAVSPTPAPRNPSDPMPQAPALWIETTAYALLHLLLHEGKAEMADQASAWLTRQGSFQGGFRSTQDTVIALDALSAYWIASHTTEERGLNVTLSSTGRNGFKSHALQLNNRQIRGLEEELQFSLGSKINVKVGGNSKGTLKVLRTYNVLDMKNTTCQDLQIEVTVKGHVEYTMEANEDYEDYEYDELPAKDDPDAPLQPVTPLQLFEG
# T4 sequence (P0C0L4 1454-1744 limits assumed, form in doubt, chain 3 of 3): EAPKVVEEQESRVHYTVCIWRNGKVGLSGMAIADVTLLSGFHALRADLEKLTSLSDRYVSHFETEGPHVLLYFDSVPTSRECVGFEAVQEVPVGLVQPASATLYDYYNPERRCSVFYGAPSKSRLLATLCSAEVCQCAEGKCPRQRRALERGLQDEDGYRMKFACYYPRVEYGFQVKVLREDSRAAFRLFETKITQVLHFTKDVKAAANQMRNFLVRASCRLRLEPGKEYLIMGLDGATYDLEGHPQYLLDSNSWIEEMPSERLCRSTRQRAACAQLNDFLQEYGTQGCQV
Binder,binding normalized to PSGL-1 (SulfoTyr C4 peptide),binding normalized to PSGL-1 [1],A450nm [2] [A450nm],binding normalized to PSGL-1 [3],binding normalized to PSGL-1 [4],binding result [4],binding normalized to PSGL-1 (SulfoCCK biotin peptide),binding normalized to PSGL-1 [5],binding normalized to PSGL-1 [6],EC50 [7] [nM],"A450nm, 20 nM mAb [8] [A450nm]",EC50 [8] [nM],A450nm [9] [A450 nm],binding result [10],"A450nm, 20 nM mAb [7] [A450nm]","A450nm, 20 nM mAb [10] [A450nm]"
B1,0.35,0.3,1.96,0.22,-0.15,no binding (tested: 50 nM),0.25,0.26,0.56,~0.05,2.8,0.07,1.77,–,–,–
B2,0.05,0.09,2.65,0.32,0.07,–,0.06,0.04,0.26,~0.05,2.79,0.05,2.11,–,–,–
B3,0.83,0.85,2.32,0.94,0.2,–,0.58,–,0.75,–,2.72,–,0.83,no binding (tested: 20 nM),0.26,–
B4,0.61,0.59,2.28,0.47,0.05,–,0.23,0.27,0.52,6.2,2.61,0.16,0.39,–,–,–
B5,0.07,0.09,–,0.79,0.17,–,0.63,0.63,0.11,–,2.67,–,0.78,no binding (tested: 20 nM),1.12,0.03

# From patent US20220396632A1 (VERSEAU THERAPEUTICS, published 2022)
